1 substance from patent US6004757 can be followed below.

The target in assay [1] is chicken pp60^v-src (chicken).
Assay [2] has as its target human EGF receptor (human) (UniProt P00533).
Assay [3] has as its target GST-fusion construct of src.
Assay [4] concerns the target chicken pp60^v-src (chicken). In words: inhibition of transphosphorylation of acid denatured enolase (1 µM) by immobilised pp60^v-src, [γ-32P]-ATP, SDS-PAGE.

In general, Ki refers to the dissociation constant of the complex between target and ligand, obtained from inhibition or displacement. Read a low Ki as a stronger hold on the target. Consider “peptide Ala-Glu-Glu-Glu-Ile-Tyr-Gly-Glu-Phe-Glu-Ala-Lys-Lys-Lys-Lys”, for which the Km (µM) of phosphorylation of the peptide by the kinase in assay [1] amounted to 32.9 µM; in assay [2], 34 µM. Besides, the Km of phosphorylation of the peptide by the kinase in assay [3] came to 33 µM. The substance also showed a Ki in assay [4] of 8 µM.
